The conditions of this series: Capra hircus, pH 7, Thermal, CD, sodium cacodylate 50 mM, NaCl 50 mM, reversible: Yes, whole UniProt chain shown.

“And” between values parts separate entries of the source, which are not always exact repeats. Identical values can stand only once.

B1: Alpha-lactalbumin wild type, P00712 (protein)
chain: MMSFVSLLLVGILFHATQAEQLTKCEVFQKLKDLKDYGGVSLPEWVCTAFHTSGYDTQAIVQNNDSTEYGLFQINNKIWCKDDQNPHSRNICNISCDKFLDDDLTDDIVCAKKILDKVGINYWLAHKALCSEKLDQWLCEKL
Turning to B1, the “heat capacity change of unfolding” value was determined as 1.8 kcal/mol/K; the “unfolding enthalpy (van 't Hoff)” value is 85.1 kcal/mol and 69.5 kcal/mol. Further, where the note is “59 °C”, the “heat capacity change of unfolding” value was 1.8 kcal/mol/K and the unfolding free energy is 0 kcal/mol.

The record behind these values is FireProtDB (doi:10.1016/j.jmb.2005.09.061).
